From patent publication US20200087416A1 (Innovent, published 2020)
Positions count from the first letter of the chain named.

B1: Evolocumab (antibody, V domains shown)
VH: QVQLVQSGAEVKKPGASVKVSCKASGYTLTSYGISWVRQAPGQGLEWMGWVSFYNGNTNYAQKLQGRGTMTTDPSTSTAYMELRSLRSDDTAVYYCARGYGMDVWGQGTTVTVSS
VL: QSALTQPASVSGSPGQSITISCTGTSSDVGGYNSVSWYQQHPGKAPKLMIYEVSNRPSGVSNRFSGSKSGNTASLTISGLQAEDEADYYCNSYTSTSMVFGGGTKLTVL
B2: Bococizumab (antibody, V domains shown)
VH: QVQLVQSGAEVKKPGASVKVSCKASGYTFTSYYMHWVRQAPGQGLEWMGEISPFGGRTNYNEKFKSRVTMTRDTSTSTVYMELSSLRSEDTAVYYCARERPLYASDLWGQGTTVTVSS
VL: DIQMTQSPSSLSASVGDRVTITCRASQGISSALAWYQQKPGKAPKLLIYSASYRYTGVPSRFSGSGSGTDFTFTISSLQPEDIATYYCQQRYSLWRTFGQGTKLEIK
B3: ADI-10090 (antibody, human IgG2, kappa, V domains shown)
VH: QLQLQESGPGLVKPSETLSLTCTVSGGSIWSSSYYWTWIRQPPGKGLEWIGSINYRGSTYYNPSLKSRVTISVDTSKNQFSLKLSSVTAADTAVYYCARENSGVVPAAGPNWFDPWGQGTLVTVSS
VL: EIVLTQSPATLSLSPGERATLSCRASQSVSSYLAWYQQKPGQAPRLLIYDASNRATGIPARFSGSGSGTDFTLTISSLEPEDFAVYYCQQRRNWFTFGGGTKVEIKR
notes: IgG
B4: ADI-10086 (antibody, human IgG2, kappa, V domains shown)
VH: B3 VH with W30R, S33A, T37G, D114G
VL: B3 VL
notes: IgG
B5: Lodelcizumab (antibody, V domains shown)
VH: QVQLVQSGAEVKKPGASVKVSCKASGYTFSTMYMSWVRQAPGQGLEWMGRIDPANEHTNYAQKFQGRVTMTRDTSISTAYMELSRLTSDDTAVYYCARSYYYYNMDYWGQGTLVTVSS
VL: QIVLTQSPATLSVSPGERATLSCRASQSVSYMHWYQQKPGQAPRLLIYGVFRRATGIPDRFSGSGSGTDFTLTIGRLEPEDFAVYYCLQWSSDPPTFGQGTKLEIK
B6: Alirocumab (antibody, V domains shown)
VH: EVQLVESGGGLVQPGGSLRLSCAASGFTFNNYAMNWVRQAPGKGLDWVSTISGSGGTTNYADSVKGRFIISRDSSKHTLYLQMNSLRAEDTAVYYCAKDSNWGNFDLWGRGTLVTVSS
VL: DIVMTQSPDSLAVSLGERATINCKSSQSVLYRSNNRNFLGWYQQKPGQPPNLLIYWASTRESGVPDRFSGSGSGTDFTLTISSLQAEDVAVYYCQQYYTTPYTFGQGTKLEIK
B7: ADI-02396 (antibody, human IgG2, kappa, V domains shown)
VH: B3 VH with W30S, T37G, N54Y, R56S, N101G
VL: B3 VL
notes: IgG; also called parent antibody
B8: ADI-10088 Fab (Fab, V domains shown)
VH: B3 VH with W30G, T37A
VL: B3 VL
B9: ADI-10090 Fab (Fab, V domains shown)
VH: B3 VH
VL: B3 VL
B10: ADI-10086 Fab (Fab, V domains shown)
VH: B3 VH with W30R, S33A, T37G, D114G
VL: B3 VL
B11: ADI-10087 Fab (Fab, V domains shown)
VH: B3 VH with W30S, S32A, T37S, D114G
VL: B3 VL
B12: ADI-09113 Fab (Fab, V domains shown)
VH: B3 VH with I29V, W30S, T37G, I53A, N54Y, R56S
VL: B3 VL
B13: ADI-09111 Fab (Fab, V domains shown)
VH: B3 VH with W30S, T37G, N54Y, R56S
VL: B3 VL
B14: ADI-10089 Fab (Fab, V domains shown)
VH: B3 VH with W30G
VL: B3 VL
B15: ADI-09112 Fab (Fab, V domains shown)
VH: B3 VH with W30S, T37G, N54Y, R56S, S64F, D114G
VL: B3 VL

target: T1, human PCSK9 (PCSK9 antigen, SEQ ID NO. 53) (human, UniProt A8T644 31-152; Q8NBP7 153-692, Biotin-labelled on amines in the MSD-SET and sorting experiments; positions not given.); experiment: flow cytometry, PCSK9 left on CHO-LDLR cells (anti-His-FITC) after premix with 10 nM antibody
T1 construct: Biotin-labelled in MSD-SET; also called PCSK9-WT; PCSK9 protein
For BODIPY-LDL uptake by HepG2 cells, fluorescence, 16.8 nM, replicate 1 in this document: unit not given here.
For BODIPY-LDL uptake by HepG2 cells, fluorescence, 16.8 nM, replicate 2 in this document: unit not given here.
For BODIPY-LDL uptake by HepG2 cells, fluorescence, 4.2 nM, replicate 1 in this document: unit not given here.
For BODIPY-LDL uptake by HepG2 cells, fluorescence, 4.2 nM, replicate 2 in this document: unit not given here.
For BODIPY-LDL uptake by HepG2 cells, fluorescence, 66.7 nM, replicate 1 in this document: unit not given here.
For BODIPY-LDL uptake by HepG2 cells, fluorescence, 66.7 nM, replicate 2 in this document: unit not given here.

Fluorescence Signal Value | Binder
5780 | B1
6270 | B2
5810 | B3
5830 | B4
7330 | B5
5750 | B6

target: T2, murine PCSK-9 (murine, UniProt Q80W65 35-694); experiment: BLI (ForteBio), IgG on AHQ sensor, 100 nM antigen
T2 construct: also called mouse PCSK9
Experimental: (§1) Briefly, the sensor was equilibrated off-line in the assay buffer for 30 minutes, and then was tested on-line for 60 seconds to establish a baseline. The purified antibody obtained as described above was loaded online onto the AHQ sensor. The sensor was then placed in 100 nM of PCSK9 antigen for 5 minutes, then the sensor was transferred to assay buffer for dissociation for 5 minutes. The kinetic analysis was performed by using a 1:1 binding model.

Kd [nM] | Binder
114 | B1
0.663 | B2
78.3 | B7
0.674 | B3
0.607 | B4
2.66 | B6

target: T1, human PCSK9 (PCSK9 antigen, SEQ ID NO. …); experiment: BLI (ForteBio), IgG on AHQ sensor, 100 nM antigen
Experimental: as §1

Kd [nM] | Binder
1.03 | B1
0.386 | B2
9.5 | B7
0.352 | B3
0.336 | B4
1.51 | B5
0.0301 | B6

target: T1, human PCSK9 (PCSK9 antigen, SEQ ID NO. …); experiment: cell-based or functional assay

BODIPY-LDL uptake by HepG2 cells, fluorescence, 4.2 nM, replicate 1 | BODIPY-LDL uptake by HepG2 cells, fluorescence, 4.2 nM, replicate 2 | BODIPY-LDL uptake by HepG2 cells, fluorescence, 16.8 nM, replicate 1 | BODIPY-LDL uptake by HepG2 cells, fluorescence, 16.8 nM, replicate 2 | BODIPY-LDL uptake by HepG2 cells, fluorescence, 66.7 nM, replicate 1 | BODIPY-LDL uptake by HepG2 cells, fluorescence, 66.7 nM, replicate 2 | Binder
0.351 | 0.36 | 0.355 | 0.363 | 0.724 | 0.778 | B1
0.366 | 0.352 | 0.404 | 0.341 | 0.432 | 0.401 | B7
0.318 | 0.352 | 0.317 | 0.314 | 0.33 | 0.312 | B5
0.364 | 0.37 | 0.396 | 0.392 | 0.686 | 0.716 | B6

target: T1, human PCSK9 (PCSK9 antigen, SEQ ID NO. …); experiment: flow cytometry, PCSK9 left on CHO-LDLR cells (anti-His-FITC) after premix with 0.1 nM antibody

Fluorescence Signal Value | Binder
6990 | B1
7100 | B2
6810 | B3
6600 | B4
8400 | B5
7170 | B6

target: T1, human PCSK9 (PCSK9 antigen, SEQ ID NO. …); experiment: flow cytometry, PCSK9 left on CHO-LDLR cells (anti-His-FITC) after premix with 100 nM antibody

Fluorescence Signal Value | Binder
5100 | B1
5310 | B2
4810 | B3
5130 | B4
8760 | B5
4950 | B6

target: T1, human PCSK9 (PCSK9 antigen, SEQ ID NO. …); experiment: flow cytometry, PCSK9 left on CHO-LDLR cells (anti-His-FITC) after premix with 1000 nM antibody

Fluorescence Signal Value | Binder
4800 | B1
6040 | B2
4820 | B3
5270 | B4
7330 | B5
4930 | B6

target: T1, human PCSK9 (PCSK9 antigen, SEQ ID NO. …); experiment: MSD-SET, Fab with biotin-PCSK9 in solution, IgG on plate, pH 6.0

Kd [nM] | Binder
0.016 | B8
0.021 | B9
0.013 | B10
0.0098 | B11
0.65 | B12
1.9 | B13
0.01 | B14

target: T1, human PCSK9 (PCSK9 antigen, SEQ ID NO. …); experiment: flow cytometry, PCSK9 left on CHO-LDLR cells (anti-His-FITC) after premix with 1 nM antibody

Fluorescence Signal Value | Binder
6810 | B1
6960 | B2
6750 | B3
6920 | B4
8760 | B5
6980 | B6

target: T2, murine PCSK-9; experiment: MSD-SET, Fab with biotin-PCSK9 in solution, IgG on plate, pH 7.4
Experimental: (§2) Anti-PCSK9 Fabs or mAbs obtained above were 3 to 5-fold serially diluted, and Fab or mAb solutions with concentrations of 5-100 nM were obtained. The antibodies (diluted in 20 nM phosphate buffered saline) were coated on MSD-ECL plates at 4° C. overnight or at room temperature for 30 minutes. 3% BSA was added, blocked at room temperature for 30 minutes at 700 rpm, and then washed 3 times with washing buffer (PBSF+0.05% Tween 20). The samples were added in the plate and placed in a shaker and incubated at room temperature at 700 rpm for 150 seconds, and then washed once. 250 ng/ml of sulfotag-labeled streptavidin (diluted in PBSF) was added and incubated at room temperature for 3 minutes. After washing 3 times with buffer, the antigen bound to the plate was determined using MSD Sector Imager 2400 Reader Device. The percentage of unbound antigen was obtained by antibody titration method.

Kd [nM] | Binder
0.087 | B8
1.2 | B15
0.12 | B9
0.06 | B10
0.041 | B11
0.76 | B12
3.5 | B13
0.07 | B14

target: T1, human PCSK9 (PCSK9 antigen, SEQ ID NO. …); experiment: as above
Experimental: as §2

Kd [nM] | Binder
0.01 | B8
0.22 | B15
0.017 | B9
0.0086 | B10
0.005 | B11
0.17 | B12
0.7 | B13
0.011 | B14
